This note sets out measurements from paper PMC2770460, “Karyopherin binding interactions and nuclear import mechanism of nuclear pore complex protein Tpr” (BMC Cell Biology, 2009).

The assay deals with His-importin α (human, UniProt P52292 1-529). The experiment in a line: ELISA; solid phase binding assay: Maxisorp microtiter plates coated with 25 ng of Tpr or C-Tpr; increasing concentrations of the soluble protein; bound protein detected with primary antibodies and horseradish peroxidase-conjugated secondary antibodies (TMB); apparent Kd from B = Bmax x Y/(Kd + Y); CRM1, NES and RanGTP at equimolar concentrations. The conditions noted are these: both partners purified. (In general: ELISA stands for enzyme-linked immunosorbent assay.)

B1: C-terminal domain of Tpr (C-Tpr, residues 1626-2348) (domain or fragment)
chain: EQRDEPQEPSNKVPEQQRQITLKTTPASGERGIASTSDPPTANIKPTPVVSTPSKVTAAAMAGNKSTPRASIRPMVTPATVTNPTTTPTATVMPTTQVESQEAMQSEGPVEHVPVFGSTSGSVRSTSPNVQPSISQPILTVQQQTQATAFVQPTQQSHPQIEPANQELSSNIVEVVQSSPVERPSTSTAVFGTVSATPSSSLPKRTREEEEDSTIEASDQVSDDTVEMPLPKKLKSVTPVGTEEEVMAEESTDGEVETQVYNQDSQDSIGEGVTQGDYTPMEDSEETSQSLQIDLGPLQSDQQTTTSSQDGQGKGDDVIVIDSDDEEEDDDENDGEHEDYEEDEEDDDDDEDDTGMGDEGEDSNEGTGSADGNDGYEADDAEGGDGTDPGTETEESMGGGEGNHRAADSQNSGEGNTGAAESSFSQEVSREQQPSSASERQAPRAPQSPRRPPHPLPPRLTIHAPPQELGPPVQRIQMTRRQSVGRGLQLTPGIGGMQQHFFDDEDRTVPSTPTLVVPHRTDGFAEAIHSPQVAGVPRFRFGPPEDMPQTSSSHSDLGQLASQGGLGMYETPLFLAHEEESGGRSVPTTPLQVAAPVTVFTESTTSDASEHASQSVPMVTTSTGTLSTTNETATGDDGDEVFVEAESEGISSEAGLEIDSQQEEEPVQASDESDLPSTSQDPPSSSSVDTSSSQPKPFRRVRLQTTLRQGVRGRQFNRQRGVS
Consider B1, for which the Kd was 0.0215 µM.
